One may read the Kd as the free concentration of one partner at which half of the binding sites on the other are occupied at equilibrium, for simple one-to-one binding. What is called EC50 is the concentration giving half of the maximal effect.

No end group written: not given here.

Test [1] concerns the target T1, mouse TREM2 full length stalk region peptide (aa 131-169) (mouse, UniProt Q99NH8 131-169, biotinylated (site not stated)).
T1 peptide (looked up): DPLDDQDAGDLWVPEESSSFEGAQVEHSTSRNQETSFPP
The test can be described thus: ELISA on biotinylated peptide captured by streptavidin; A450 normalised to isotype control. The gist of the method: (§1)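 Sandwich ELISA: biotinylated TREM2 stalk peptides captured on streptavidin-coated plates, antibodies added for 1 h in 1% BSA/PBS, binding detected with anti-human kappa-HRP and TMB at A450. Values expressed as fold over isotype-control background.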

In test [2] the target is T2, human TREM2 full length stalk region peptide (aa 129-172) (human, biotinylated (site not stated)).
T2 construct: also called Human TREM2 peptide (aa 129-172); full-length TREM2 stalk peptide
T2 peptide: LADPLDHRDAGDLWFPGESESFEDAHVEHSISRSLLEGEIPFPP
The test is described as above. The gist of the method:
as §1

Test [3] deals with T3, human TREM2 truncated stalk peptide (aa 149-163) (human, also: biotinylated (site not given here)).
T3 construct: also called Human TREM2 peptide (aa 149-163); truncated stalk peptide containing the ADAM10/17 cleavage site
T3 peptide: SFEDAHVEHSISRSL
Described as above. The gist of the method:
as §1

The target in test [4] is T4, His-tagged human TREM2 ECD (human, UniProt Q9NZC2 19-172).
T4 construct: Biacore and HDX say only recombinant human TREM2 (ECD); also called recombinant human TREM2; hTREM2
T4 sequence: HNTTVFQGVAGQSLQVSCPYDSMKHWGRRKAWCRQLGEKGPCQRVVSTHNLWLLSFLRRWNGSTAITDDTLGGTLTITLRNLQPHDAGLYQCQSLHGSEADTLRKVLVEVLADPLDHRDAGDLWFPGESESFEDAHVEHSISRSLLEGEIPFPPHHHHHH
The test can be described thus: SPR (Biacore), antibody captured via anti-human Fab, recombinant TREM2 ECD injected, 1:1 fit. In a few lines: (§2)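 Antibodies captured on a CM5 chip via anti-human Fab, then 3-fold serial dilutions of recombinant human or cynomolgus TREM2 ECD injected at 30 μL/min in HBS-EP+. Association 300 s, dissociation 600+ s, blank-cell subtracted; kon and koff from simultaneous 1:1 Langmuir fit.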
A general note: In SPR one partner is held on a chip, and binding of the other changes the refractive index at the surface.

Test [5] concerns the target T5, recombinant cynomolgus TREM2 ECD (cynomolgus).
T5 construct: extracellular domain; also called cyno TREM2
Described as above. The gist of the method:
as §2

Test [6] has as its target T6, human TREM2 on the cell surface (human, UniProt Q9NZC2 19-230).
T6 construct: also called surface TREM2; TREM2 expressed in HEK293-H6 cells
T6 sequence: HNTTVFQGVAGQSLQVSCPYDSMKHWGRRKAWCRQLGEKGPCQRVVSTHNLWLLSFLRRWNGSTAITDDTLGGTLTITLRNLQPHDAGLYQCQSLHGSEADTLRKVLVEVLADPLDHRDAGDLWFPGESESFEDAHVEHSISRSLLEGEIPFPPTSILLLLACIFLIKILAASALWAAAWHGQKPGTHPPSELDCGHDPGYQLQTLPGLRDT
The test can be described thus: cell binding, human macrophages, dose titration.

In test [7] the target is T2, human TREM2 full length stalk region …. The test can be described thus: fluorescence polarization assay with TREM2 stalk peptide and ADAM17. The method, then:
The ability of anti-TREM2 antibodies to inhibit TREM2 stalk peptide cleavage by ADAM17 was also analyzed using a fluorescence polarization assay. TREM2 stalk peptides were first prepared in assay buffer (25 mM Tris pH 7.5, 2.5 μM ZnCl₂, 0.005% Brij-35) with streptavidin. Anti-TREM2 antibodies were then pre-incubated with TREM2 stalk peptides for 30 minutes at room temperature. After the pre-incubation period, ADAM17 (R&D systems, Catalog No. 930-ADB) was added and incubated with the peptides for 20 hours at 37° C. The following day, samples were further diluted in assay buffer and transferred to a black opaque 384-well plate. Fluorescence polarization was subsequently measured on Perkin Elmer EnVision plate reader. The fluorescence polarization of TREM2 stalk peptides pre-incubated with anti-TREM2 antibody was compared to fluorescence polarization of full-length TREM2 stalk peptide and enzyme control (full-length TREM2 stalk peptide with ADAM17).

Test [8] concerns the target T6, human TREM2 on the cell surface. The test is described as follows: cell-based or functional assay.
Test [9] has the same target. The test can be described thus: flow cytometry, dose-titrated binding to HEK293-H6 cells. A general note: Flow cytometry measures light scatter and fluorescence of single cells or particles in a stream.
In test [10] the target is T4, His-tagged human TREM2 ECD. The test can be described thus: SPR (Biacore); Table 5 run, parent beside its humanized variants.

B1: CL0020107 (antibody, V domains shown)
VH: QVQLQQPGAELVKPGASVKMSCRASGYTFTNYWISWVKQRPGQGLEWIGDIYPHSTSTNYNERFRSKATLTVDKSSTTAYMQLSSLTSEDSAVYYCAREGFGISAWGQGTTLTVSS
VL: QIVLTQSPAIMSASPGEKVTITCSATSSVSYMHWFQQKPGTSPKLWIYSTSNLASGVPARFSGSGSGTSHSLTISRMEAEDAATYYCQQRSSYPLTFGSGTKLELK
notes: also called Clone CL0020107
In the case of B1, the entries for the “fold over background (A450)” value in test [1], in test [2] and in [3] were 1.3 fold, 1.7 fold and 1.4 fold, respectively. Further, the Kd in [4] is 1.47 nM; in test [5] it was 104 nM. In addition, the 50% effective concentration (EC50) in [6] is 4.4 nM. In [7], the binding result is listed as “no binding”. Also, the “NFAT EC50 (nM), plate coated mAb” value in test [8] came out at 10.9 nM. Further, the “Survival EC50 (nM), plate coated mAb, human macrophages” value in test [8] was found to be 0.53 nM. Moreover, the “pSyk activation (human macrophages) EC50 (nM)” value in test [8] was found to be 28.5 nM.

B2: CL0020188 (antibody, V domains shown)
VH: EVKLLDSGGGLVQAGGSLRLSCAGSGFTFTDFYMSWIRQPPGKAPEWLGVIRNKANGYTAGYNPSVKGRFTISRDNTQNILYLQMNTLRAEDTAIYYCARLTYGFDYWGQGVMVTVSS
VL: DIVMTQGALPNPVPSGESASITCQSSKSLLHSNGKTYLNWYLQRPGQSPQLLIYWMSTRASGVSDRFSGSGSGTDFTLKISSVEAEDVGVYYCQQFLEYPFTFGSGTKLEIK
notes: also called Clone CL0020188
In the case of B2, the “fold over background (A450)” value was 33 fold in [1] and 51 fold in [2]. In addition, the Kd turned out to be 5.2 nM in [4], 2 nM in test [5] and 9.5 nM in test [10]. Besides, the EC50 in [6] is 0.5 nM; in test [9], 0.44 nM. Besides, in [8], the “NFAT EC50 (nM), plate coated mAb” value is 91.2 nM. In addition, in test [8], the “Survival EC50 (nM), plate coated mAb, human macrophages” value turned out to be 2.4 nM. Also, the “pSyk activation (human macrophages) EC50 (nM)” value in [8] amounted to 7.7 nM.

For the origin of these results see US20220119522A1 (DENALI THERAPEUTICS, published 2022).
